Measured values from patent publication US20020031818A1, “Modification of Mdm2 activity” (priority 2000, published 2002).

Tests used:
Mdm2 = assay: In vivo ubiquitination of Mdm2 in EJ cells (HA-Ub, Mdm2 immunoprecipitation); type: cell-based, mouse; conditions: forced expression in EJ p19 null cells
From the text: (§1) FIG. 14A-14E. A. In vitro ubiquitination of Mdm2 is inhibited by p19^ARF. GST-Mdm2 was subjected to an in vitro ubiquitination reaction using purified forms of E1, E2 and Ub-HA in the presence of ATP. Addition of bacculovirus-purified p19^ARF at the indicated concentrations blocked Mdm2 ubiquitination. Glutathione bead-coupled GST-Mdm2 in its ubiquitinated or non-ubiquitinated forms was washed and analyzed on immunoblots using antibodies to HA (upper panel). Middle panel depicts the level of Mdm2 expression and the lower panel, the level of p19^ARF added to the reaction. B. p19^ARF expression increases Mdm2 self-ubiquitination in EJ cells. EJ cells were transfected with the indicated plasmids. Cells were harvested 36 h later and proteins ([…]) were immunoprecipitated using Mdm2 antibodies (2A10). Immunoprecipitated material was washed and proteins loaded onto 10% SDS-PAGE, followed by immunoblot analysis with HA-antibodies to detect covalent HA-ubiquitin conjugation to Mdm2 (upper panel). Middle panel depicts level of immunoprecipitated Mdm2. Lower panel represents western analysis of p19^ARF expression levels. C. In vitro ubiquitination of Mdm2 in the presence of p19^ARF and protein extracts. […] The level of p53 immunoprecipitated was monitored in immunoblots using polyclonal antibodies to p53 (middle). […]

[1] = tested on: p53 transcriptional activity; assay: p21-luc luciferase reporter assay in EJ cells; type: cell-based, mouse; conditions: EJ cells transfected with p53, p19ARF and p21 promoter luciferase construct
From the text: as §1, with “(2A10).” for “(2A10). Immunoprecipitated material was washed and proteins loaded onto 10% SDS-PAGE, followed by immunoblot analysis with HA-antibodies to detect covalent HA-ubiquitin conjugation to Mdm2 (upper panel). Middle panel depicts level of immunoprecipitated Mdm2. Lower panel represents western analysis of p19^ARF expression levels. C. In vitro ubiquitination of Mdm2 in the presence of p19^ARF and protein extracts.”
Non-denaturing immunoprecipitation and luciferase assay p53/Mdm2 double null cells (Fuch et al., Oncogene 17:2543-2547, 1998), EJ, NIH3T3 mouse fibroblasts and TIG human fibroblasts were maintained in DMEM (Gibco) supplemented with 10% heat-inactivated fetal bovine serum and antibiotics in 5% CO2 Transfections were performed by lipofection (LipofectaminPlus, GIBCO). […] Luciferase activity was determined using the Promega luciferase assay system (Promega, Madison, Wis.). […]

B1: p19^ARF: Mdm2-regulating protein; in vitro translated, bacculovirus-expressed or transfected (protein)
chain: MGRRFLVTVRIQRAGRPLQERVFLVKFVRSRRPRTASCALAFVNMLLRLERILRRGPHRNPGPGDDDGQRSRSSSSAQLRCRFELRGPHYLLPPGARRSAGRLPGHAGGAARVRGSAGCARCLGSPAARLGPRAGTSRHRAIFAFRWVLFVFRWVVFVYRWERRPDRRA
degree of Mdm2 ubiquitination in vivo (Mdm2): noticeable increase in the degree of Mdm2 ubiquitination
p53 transcriptional activity (p21-luc) [1]: corresponding increase
